The values that follow come from the supplement of paper PMC10567573.

B1: NECAB1 (parent)
chain: FSPNSPQFNVSGPGLLEEDNQWMT
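Also: lentivirally expressed fusions sorted by FACS into six bins by GFP to DsRed ratio, PSI derived from sequencing read proportions per bin multiplied by bin number.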

The variants in the series derive from B1. The series is described as follows: protein stability index of a GFP-peptide fusion (GPS, HEK-293T) (PSI 1-6); higher = more stable. Particulars: c terminus: a fixed tail appended.
Take FSPNSPQNNVSGPGLLEEDNQWMT: the protein stability index is 4.29. On to FSPNSPQENVSGPGLLEEDNQWMT, for which the protein stability index turned out to be 4.44. Turning to FSPNSPQDNVSGPGLLEEDNQWMT, the protein stability index was 4.15. The figure for FSPNSPQHNVSGPGLLEEDNQWMT is 3.77; for FSPNSPQYNVSGPGLLEEDNQWMT it is 3.43. For FSPNSPQINVSGPGLLEEDNQWMT the value was 3.26; for FSPNSPQGNVSGPGLLEEDNQWMT, 3.83; for FSPNSPQWNVSGPGLLEEDNQWMT, 1.43. The figure for FSPNSPQVNVSGPGLLEEDNQWMT is 3.61; for FSPNSPQTNVSGPGLLEEDNQWMT it is 3.5.

FSPNSPQSNVSGPGLLEEDNQWMT: the protein stability index worked out at 4. Take FSPNSPQPNVSGPGLLEEDNQWMT: the protein stability index worked out at 3.47.

Consider FSPNSPQKNVSGPGLLEEDNQWMT, for which the protein stability index is 3.78.

On to FSPNSPQCNVSGPGLLEEDNQWMT, for which the protein stability index worked out at 3.42. The figure for FSPNSPQRNVSGPGLLEEDNQWMT is 3.65; for FSPNSPQLNVSGPGLLEEDNQWMT it is 3.04; for FSPNSPQQNVSGPGLLEEDNQWMT it is 3.79. For FSPNSPQMNVSGPGLLEEDNQWMT the value was 3.65; for FSPNSPQANVSGPGLLEEDNQWMT, 4.17. FSPNRPQFNVSGPGLLEEDNQWMT: the protein stability index was determined as 2.78. FSPNYPQFNVSGPGLLEEDNQWMT: the protein stability index came out at 1.94. As for FSPNVPQFNVSGPGLLEEDNQWMT, the protein stability index came out at 2.75.

Turning to FSPNTPQFNVSGPGLLEEDNQWMT, the protein stability index was found to be 2.98.

Regarding FSPNWPQFNVSGPGLLEEDNQWMT, the protein stability index came out at 2.27. For FSPNSPQFNKSGPGLLEEDNQWMT the value was 2.94; for FSPNSPQFNHSGPGLLEEDNQWMT, 3.63. Consider FSPNSPQFNASGPGLLEEDNQWMT, for which the protein stability index turned out to be 3.5.

FSPNSPQFNFSGPGLLEEDNQWMT: the protein stability index amounted to 2.28. Take FSPNSPQFNSSGPGLLEEDNQWMT: the protein stability index amounted to 3.19. Consider FSPNSPQFNNSGPGLLEEDNQWMT, for which the protein stability index was determined as 3.68. As for FSPNSPQFNMSGPGLLEEDNQWMT, the protein stability index is 3.33. Take FSPNSPQFNLSGPGLLEEDNQWMT: the protein stability index was 2.74.

Turning to FSPNSPQFNTSGPGLLEEDNQWMT, the protein stability index worked out at 2.89. For FSPNSPQFNCSGPGLLEEDNQWMT the value was 2.42; for FSPNSPQFNISGPGLLEEDNQWMT, 3.09; for FSPNSPQFNQSGPGLLEEDNQWMT, 3.32. Take FSPNSPQFNESGPGLLEEDNQWMT: the protein stability index amounted to 4.16. As for FSPNSPQFNRSGPGLLEEDNQWMT, the protein stability index worked out at 3.38. Consider FSPNSPQFNDSGPGLLEEDNQWMT, for which the protein stability index was 4.09.

Take FSPNSPQFNGSGPGLLEEDNQWMT: the protein stability index turned out to be 2.92.

For FSPNSPQFNYSGPGLLEEDNQWMT, the protein stability index worked out at 2.89. On to FSPNSPQFNWSGPGLLEEDNQWMT, for which the protein stability index amounted to 1.87. For FSPNSPQFNPSGPGLLEEDNQWMT, the protein stability index came out at 3.16.

Regarding FSPNSPIFNVSGPGLLEEDNQWMT, the protein stability index was 2.11. With FSPNSPEFNVSGPGLLEEDNQWMT, the protein stability index came out at 3.88. The figure for FSPNSPKFNVSGPGLLEEDNQWMT is 2.27; for FSPNSPVFNVSGPGLLEEDNQWMT it is 2.22. For FSPNSPPFNVSGPGLLEEDNQWMT, the protein stability index was determined as 2.9.

In the case of FSPNSPAFNVSGPGLLEEDNQWMT, the protein stability index was determined as 1.92. FSPNSPMFNVSGPGLLEEDNQWMT: the protein stability index came out at 2.02. On to FSPNSPNFNVSGPGLLEEDNQWMT, for which the protein stability index turned out to be 2.89. For the variant FSPNSPDFNVSGPGLLEEDNQWMT, the protein stability index turned out to be 4.25. Regarding FSPNSPFFNVSGPGLLEEDNQWMT, the protein stability index was found to be 2.59.

FSPNSPTFNVSGPGLLEEDNQWMT: the protein stability index was found to be 3.09.

For the variant FSPNSPCFNVSGPGLLEEDNQWMT, the protein stability index was 2.

For FSPNSPLFNVSGPGLLEEDNQWMT, the protein stability index was found to be 1.45. Take FSPNSPWFNVSGPGLLEEDNQWMT: the protein stability index worked out at 2.64. Regarding FSPNSPYFNVSGPGLLEEDNQWMT, the protein stability index was 1.72. FSPNSPSFNVSGPGLLEEDNQWMT: the protein stability index was found to be 2.66. For the variant FSPNSPGFNVSGPGLLEEDNQWMT, the protein stability index turned out to be 2.74. Turning to FSPNSPHFNVSGPGLLEEDNQWMT, the protein stability index is 2.94.

As for FSPNSPRFNVSGPGLLEEDNQWMT, the protein stability index worked out at 2.07. For FSPNSPQFNVSGYGLLEEDNQWMT, the protein stability index came out at 2.75.

FSPNSPQFNVSGEGLLEEDNQWMT: the protein stability index is 3.58. As to FSPNSPQFNVSGQGLLEEDNQWMT, the protein stability index was 3.12. The figure for FSPNSPQFNVSGRGLLEEDNQWMT is 2.79; for FSPNSPQFNVSGAGLLEEDNQWMT it is 3.15; for FSPNSPQFNVSGVGLLEEDNQWMT it is 2.75. Regarding FSPNSPQFNVSGFGLLEEDNQWMT, the protein stability index is 2.29. Take FSPNSPQFNVSGDGLLEEDNQWMT: the protein stability index was 3.46.

Take FSPNSPQFNVSGKGLLEEDNQWMT: the protein stability index amounted to 2.71.

As for FSPNSPQFNVSGMGLLEEDNQWMT, the protein stability index amounted to 2.65. For FSPNSPQFNVSGCGLLEEDNQWMT the value was 2.49; for FSPNSPQFNVSGNGLLEEDNQWMT, 3.5; for FSPNSPQFNVSGHGLLEEDNQWMT, 2.62. For FSPNSPQFNVSGIGLLEEDNQWMT the value was 3.27; for FSPNSPQFNVSGSGLLEEDNQWMT, 3.02; for FSPNSPQFNVSGWGLLEEDNQWMT, 1.7. Turning to FSPNSPQFNVSGLGLLEEDNQWMT, the protein stability index turned out to be 2.39. For FSPNSPQFNVSGGGLLEEDNQWMT, the protein stability index was determined as 2.89. As to FSPNSPQFNVSGTGLLEEDNQWMT, the protein stability index turned out to be 3.32. As to FSPNSPQFNVGGPGLLEEDNQWMT, the protein stability index was 2.76. FSPNSPQFNVWGPGLLEEDNQWMT: the protein stability index is 3.29. For FSPNSPQFNVNGPGLLEEDNQWMT, the protein stability index is 3.31. For FSPNSPQFNVTGPGLLEEDNQWMT, the protein stability index was found to be 2.79. As to FSPNSPQFNVPGPGLLEEDNQWMT, the protein stability index came out at 3.19. Regarding FSPNSPQFNVKGPGLLEEDNQWMT, the protein stability index is 2.44. On to FSPNSPQFNVDGPGLLEEDNQWMT, for which the protein stability index was determined as 3.73. On to FSPNSPQFNVFGPGLLEEDNQWMT, for which the protein stability index was 2. With FSPNSPQFNVLGPGLLEEDNQWMT, the protein stability index came to 2.91.

Consider FSPNSPQFNVHGPGLLEEDNQWMT, for which the protein stability index was found to be 2.5.

Take FSPNSPQFNVIGPGLLEEDNQWMT: the protein stability index stood at 2.9.

With FSPNSPQFNVRGPGLLEEDNQWMT, the protein stability index came out at 2.62. The figure for FSPNSPQFNVQGPGLLEEDNQWMT is 3.09.
